{"source": "paper PMC7797080", "about": "(Nucleic Acids Research, 2020)", "proteins": {"B1": {"name": "PSEUDOURIDINE KINASE from Arabidopsis (AtPUKI), native, tag-free (enzyme, Arabidopsis thaliana)", "chain": "GGGSMEPVIIGALILDVHAKPSTTPISGTTVPGQVLFAPGGVARNVADCIFKLGITPFMIGTLGLDGPANVLLKEWKLSMKGILRREDISTPIVSLVYDTNGEVAAGVAGVDAVENFLTPEWIQRFEYNISSARLLMVDANLSSLALEASCKLAAESSVPVWFEPVSVTKSQRIASIAKYVTIVSPNQDELIAMANALCAKNLFHPFRSDENKLSIEDMFRALKPAILVLLKNGVKVVIVTLGSNGALLCSKGNPKKALNIDRKFLRSGEVFKRVQSVCSPNRFSELGSNRSPSLFAMHFPTIPAKVKKLTGAGDCLVGGTVASLSDGLDLIQSLAVGIASAKAAVESDDNVPPEFKLDLISGDAELVYNGAKMLMVHQSML"}}, "target": "the molecule itself", "assay": "SEC"}
{"protein": "B1", "values": [{"measurement": "stoichiometry N", "value": 2}]}
